Here are results for three molecules from PMC5503505 (Nature structural & molecular biology, 2017).

B1: Cdc6 (natural protein)
chain: MSAIPITPTKRIRRNLFDDAPATPPRPLKRKKLQFTDVTPESSPEKLQFGSQSIFLRTKALLQKSSELVNLNSSDGALPARTAEYEQVMNFLAKAISEHRSDSLYITGPPGTGKTAQLDMIIRQKFQSLPLSLSTPRSKDVLRHTNPNLQNLSWFELPDGRLESVAVTSINCISLGEPSSIFQKIFDSFQDLNGPTLQIKNMQHLQKFLEPYHKKTTFVVVLDEMDRLLHANTSETQSVRTILELFLLAKLPTVSFVLIGMANSLDMKDRFLSRLNLDRGLLPQTIVFQPYTAEQMYEIVIQKMSSLPTIIFQPMAIKFAAKKCAGNTGDLRKLFDVLRGSIEIYELEKRFLLSPTRGSLNSAQVPLTPTTSPVKKSYPEPQGKIGLNYIAKVFSKFVNNNSTRTRIAKLNIQQKLILCTIIQSLKLNSDATIDESFDHYIKAITKTDTLAPLQRNEFLEICTILETCGLVSIKKTKCKGKTKRFVDKIDVDLDMREFYDEMTKISILKPFLH
B2: Orc2 (natural protein)
chain: MLNGEDFVEHNDILSSPAKSRNVTPKRVDPHGERQLRRIHSSKKNLLERISLVGNERKNTSPDPALKPKTPSKAPRKRGRPRKIQEELTDRIKKDEKDTISSKKKRKLDKDTSGNVNEESKTSNNKQVMEKTGIKEKREREKIQVATTTYEDNVTPQTDDNFVSNSPEPPEPATPSKKSLTTNHDFTSPLKQIIMNNLKEYKDSTSPGKLTLSRNFTPTPVPKNKKLYQTSETKSASSFLDTFEGYFDQRKIVRTNAKSRHTMSMAPDVTREEFSLVSNFFNENFQKRPRQKLFEIQKKMFPQYWFELTQGFSLLFYGVGSKRNFLEEFAIDYLSPKIAYSQLAYENELQQNKPVNSIPCLILNGYNPSCNYRDVFKEITDLLVPAELTRSETKYWGNHVILQIQKMIDFYKNQPLDIKLILVVHNLDGPSIRKNTFQTMLSFLSVIRQIAIVASTDHIYAPLLWDNMKAQNYNFVFHDISNFEPSTVESTFQDVMKMGKSDTSSGAEGAKYVLQSLTVNSKKMYKLLIETQMQNMGNLSANTGPKRGTQRTGVELKLFNHLCAADFIASNEIALRSMLREFIEHKMANITKNNSGMEIIWVPYTYAELEKLLKTVLNTL
B3: Orc6 (natural protein)
chain: MSMQQVQHCVAEVLRLDPQEKPDWSSGYLKKLTNATSILYNTSLNKVMLKQDEEVARCHICAYIASQKMNEKHMPDLCYYIDSIPLEPKKAKHLMNLFRQSLSNSSPMKQFAWTPSPKKNKRSPVKNGGRFTSSDPKELRNQLFGTPTKVRKSQNNDSFVIPELPPMQTNESPSITRRKLAFEEDEDEDEEEPGNDGLSLKSHSNKSITGTRNVDSDEYENHESDPTSEEEPLGVQESRSGRTKQNKAVGKPQSELKTAKALRKRGRIPNSLLVKKYCKMTTEEIIRLCNDFELPREVAYKIVDEYNINASRLVCPWQLVCGLVLNCTFIVFNERRRKDPRIDHFIVSKMCSLMLTSKVDDVIECVKLVKELIIGEKWFRDLQIRYDDFDGIRYDEIIFRKLGSMLQTTNILVTDDQYNIWKKRIEMDLALTEPL

In test [1] the target is T1, Orc1 (S. cerevisiae, UniProt P54784 1-914).
T1 sequence: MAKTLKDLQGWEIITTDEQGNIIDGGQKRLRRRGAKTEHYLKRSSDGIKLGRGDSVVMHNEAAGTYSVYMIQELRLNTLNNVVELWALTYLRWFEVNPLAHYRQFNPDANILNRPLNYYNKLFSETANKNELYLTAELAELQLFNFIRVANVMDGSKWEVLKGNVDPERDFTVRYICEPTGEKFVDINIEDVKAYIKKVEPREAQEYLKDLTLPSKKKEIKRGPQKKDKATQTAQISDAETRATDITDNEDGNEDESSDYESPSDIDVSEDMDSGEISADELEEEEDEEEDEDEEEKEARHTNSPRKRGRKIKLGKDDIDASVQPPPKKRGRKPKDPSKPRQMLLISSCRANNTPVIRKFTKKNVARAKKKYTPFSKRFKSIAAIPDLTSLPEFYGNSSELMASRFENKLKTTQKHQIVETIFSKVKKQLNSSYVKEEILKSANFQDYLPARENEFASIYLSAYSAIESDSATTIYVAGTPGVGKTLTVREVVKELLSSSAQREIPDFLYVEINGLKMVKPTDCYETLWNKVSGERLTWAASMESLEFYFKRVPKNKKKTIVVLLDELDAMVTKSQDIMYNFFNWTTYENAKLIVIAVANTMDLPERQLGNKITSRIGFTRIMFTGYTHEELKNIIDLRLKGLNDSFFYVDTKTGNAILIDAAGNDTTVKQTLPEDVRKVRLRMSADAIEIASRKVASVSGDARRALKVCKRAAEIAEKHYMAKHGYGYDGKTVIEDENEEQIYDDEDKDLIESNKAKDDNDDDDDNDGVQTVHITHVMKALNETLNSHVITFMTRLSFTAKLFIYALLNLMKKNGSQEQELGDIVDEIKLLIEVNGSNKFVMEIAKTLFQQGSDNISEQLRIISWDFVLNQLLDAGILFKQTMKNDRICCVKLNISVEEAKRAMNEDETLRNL
Briefly: cryo-EM structure.

Test [2] has as its target T2, Mcm7 (S. cerevisiae, UniProt P38132 1-845).
T2 sequence: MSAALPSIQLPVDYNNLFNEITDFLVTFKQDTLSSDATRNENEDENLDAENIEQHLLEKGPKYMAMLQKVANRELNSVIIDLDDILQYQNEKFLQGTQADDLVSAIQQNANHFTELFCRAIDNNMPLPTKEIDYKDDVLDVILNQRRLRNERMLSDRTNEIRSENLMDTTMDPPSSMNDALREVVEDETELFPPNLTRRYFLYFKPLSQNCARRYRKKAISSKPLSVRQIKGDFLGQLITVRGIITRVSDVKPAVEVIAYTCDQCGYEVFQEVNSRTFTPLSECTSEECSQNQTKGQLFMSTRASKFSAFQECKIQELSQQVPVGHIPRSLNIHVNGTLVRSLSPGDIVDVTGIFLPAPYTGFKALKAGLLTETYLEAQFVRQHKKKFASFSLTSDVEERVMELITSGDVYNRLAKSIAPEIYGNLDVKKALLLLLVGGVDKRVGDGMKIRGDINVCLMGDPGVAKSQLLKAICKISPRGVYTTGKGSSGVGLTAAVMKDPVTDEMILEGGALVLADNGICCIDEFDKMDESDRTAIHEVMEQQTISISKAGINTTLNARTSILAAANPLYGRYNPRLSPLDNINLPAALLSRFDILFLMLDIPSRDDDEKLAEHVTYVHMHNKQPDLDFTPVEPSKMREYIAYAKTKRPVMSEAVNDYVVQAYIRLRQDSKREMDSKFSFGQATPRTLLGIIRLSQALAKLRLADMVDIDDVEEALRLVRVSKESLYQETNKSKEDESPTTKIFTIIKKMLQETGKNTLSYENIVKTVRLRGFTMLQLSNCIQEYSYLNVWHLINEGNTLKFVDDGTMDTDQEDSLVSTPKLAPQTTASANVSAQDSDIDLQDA
Description: cryo-EM structure.

Test [3] addresses T3, Mcm5 (S. cerevisiae, UniProt P29496 1-775).
T3 sequence: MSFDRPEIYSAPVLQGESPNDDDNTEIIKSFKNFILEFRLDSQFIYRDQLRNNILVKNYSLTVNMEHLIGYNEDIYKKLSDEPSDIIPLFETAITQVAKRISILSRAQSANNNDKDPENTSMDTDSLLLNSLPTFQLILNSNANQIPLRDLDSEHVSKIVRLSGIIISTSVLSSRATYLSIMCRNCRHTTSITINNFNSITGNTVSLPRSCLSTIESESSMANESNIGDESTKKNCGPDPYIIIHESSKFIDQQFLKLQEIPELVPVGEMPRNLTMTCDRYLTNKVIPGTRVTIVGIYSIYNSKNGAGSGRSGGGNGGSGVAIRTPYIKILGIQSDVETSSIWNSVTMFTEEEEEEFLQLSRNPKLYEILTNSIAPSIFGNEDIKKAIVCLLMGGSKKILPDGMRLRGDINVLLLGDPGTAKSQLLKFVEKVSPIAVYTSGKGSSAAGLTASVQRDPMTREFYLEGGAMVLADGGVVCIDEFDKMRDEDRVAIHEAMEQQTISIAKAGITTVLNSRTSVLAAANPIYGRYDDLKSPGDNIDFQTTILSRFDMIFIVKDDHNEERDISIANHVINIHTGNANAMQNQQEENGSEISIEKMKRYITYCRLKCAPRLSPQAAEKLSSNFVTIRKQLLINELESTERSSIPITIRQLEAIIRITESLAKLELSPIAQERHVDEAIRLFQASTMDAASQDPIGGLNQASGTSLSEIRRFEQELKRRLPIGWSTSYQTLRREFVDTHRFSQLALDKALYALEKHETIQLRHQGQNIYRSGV
Description: cross-linking.

For test [4], the target named is Mcm3 (S. cerevisiae, UniProt P24279 1-971). Briefly: cryo-EM structure.
Test [5] concerns the target B2. Briefly: cross-linking.
The target in test [6] is T4, Cdt1 (S. cerevisiae, UniProt P47112 1-604).
T4 sequence: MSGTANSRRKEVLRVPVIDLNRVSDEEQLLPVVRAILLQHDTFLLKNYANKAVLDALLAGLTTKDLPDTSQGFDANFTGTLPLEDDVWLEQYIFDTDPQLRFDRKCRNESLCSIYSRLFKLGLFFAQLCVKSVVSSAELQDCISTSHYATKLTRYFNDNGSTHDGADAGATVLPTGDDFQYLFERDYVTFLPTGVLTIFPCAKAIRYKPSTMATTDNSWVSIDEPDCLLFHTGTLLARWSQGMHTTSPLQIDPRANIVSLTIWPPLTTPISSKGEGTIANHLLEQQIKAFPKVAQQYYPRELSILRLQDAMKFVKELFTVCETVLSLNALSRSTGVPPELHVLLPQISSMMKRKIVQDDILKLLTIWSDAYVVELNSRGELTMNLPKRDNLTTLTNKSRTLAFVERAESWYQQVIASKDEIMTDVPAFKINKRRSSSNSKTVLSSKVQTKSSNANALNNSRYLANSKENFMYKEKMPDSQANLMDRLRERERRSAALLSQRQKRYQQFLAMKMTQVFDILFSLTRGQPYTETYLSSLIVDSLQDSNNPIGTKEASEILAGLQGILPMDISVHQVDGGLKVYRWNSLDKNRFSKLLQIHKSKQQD
Description: cross-linking.

Chain of Mcm3 (P24279 whole entry): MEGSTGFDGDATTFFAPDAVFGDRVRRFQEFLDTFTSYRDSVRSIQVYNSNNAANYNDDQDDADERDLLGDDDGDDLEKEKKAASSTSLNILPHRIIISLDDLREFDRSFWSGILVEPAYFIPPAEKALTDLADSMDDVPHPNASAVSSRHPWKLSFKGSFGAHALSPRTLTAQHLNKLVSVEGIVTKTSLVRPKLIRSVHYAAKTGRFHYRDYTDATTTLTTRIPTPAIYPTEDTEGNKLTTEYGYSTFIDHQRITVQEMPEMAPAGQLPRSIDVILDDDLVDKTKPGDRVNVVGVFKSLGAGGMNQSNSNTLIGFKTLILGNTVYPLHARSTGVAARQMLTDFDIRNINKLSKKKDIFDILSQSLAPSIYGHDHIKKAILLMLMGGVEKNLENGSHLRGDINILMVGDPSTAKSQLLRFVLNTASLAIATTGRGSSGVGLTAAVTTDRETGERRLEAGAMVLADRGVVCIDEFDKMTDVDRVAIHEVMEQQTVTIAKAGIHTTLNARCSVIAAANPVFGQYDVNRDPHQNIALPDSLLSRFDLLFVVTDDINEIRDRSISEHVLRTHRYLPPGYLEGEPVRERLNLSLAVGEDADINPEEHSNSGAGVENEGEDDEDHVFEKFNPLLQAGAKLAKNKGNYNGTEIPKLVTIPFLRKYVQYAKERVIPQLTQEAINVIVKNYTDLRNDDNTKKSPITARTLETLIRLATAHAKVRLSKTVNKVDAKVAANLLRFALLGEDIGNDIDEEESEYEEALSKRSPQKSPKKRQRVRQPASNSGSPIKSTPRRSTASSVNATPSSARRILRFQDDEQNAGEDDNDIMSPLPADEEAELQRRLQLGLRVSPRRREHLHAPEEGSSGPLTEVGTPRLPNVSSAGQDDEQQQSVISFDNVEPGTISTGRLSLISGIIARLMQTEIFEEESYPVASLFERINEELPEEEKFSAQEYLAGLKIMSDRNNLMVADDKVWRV

In the case of B1, the binding result in test [1] and in test [2] was “binds” each time.

As to B2, the binding result in test [3] and in test [4] was “binds” in each case.

On to B3, for which the binding result in test [5] and in test [6] was “binds” in each case.
